Assay results reported in paper PMC3774411, “Characterization of the Human Sigma-1 Receptor Chaperone Domain Structure and Binding Immunoglobulin Protein (BiP) Interactions*” (The Journal of Biological Chemistry, 2013).

Experiments:
[1] = molecular target: T1, human binding immunoglobulin protein (BiP), residues 26-654 ("full length") (human, UniProt P11021 26-654); experiment: NMR titration; 15N-labelled S1R(cd) (~250 uM) in DPC micelles titrated with unlabelled BiP constructs; 1H,15N SOFAST-HMQC, cross-peak intensities and chemical shifts; 100 mM NaCl, 30 mM DPC, 5 mM 2-mercaptoethanol, 20 mM HEPES pH 6.5, 37 C; full-length BiP without and with 2.5 mM calcium chloride, NBD without calcium, SBD with 2.5 mM calcium; conditions: both partners purified
T1 construct: Constructs from Herwig Schueler, Karolinska Institutet; also called full-length BiP; source: E. coli BL21(DE3), purified (ammonium sulfate precipitation, nickel chromatography, Q-Sepharose, Superdex200)
T1 sequence (P11021 26-654): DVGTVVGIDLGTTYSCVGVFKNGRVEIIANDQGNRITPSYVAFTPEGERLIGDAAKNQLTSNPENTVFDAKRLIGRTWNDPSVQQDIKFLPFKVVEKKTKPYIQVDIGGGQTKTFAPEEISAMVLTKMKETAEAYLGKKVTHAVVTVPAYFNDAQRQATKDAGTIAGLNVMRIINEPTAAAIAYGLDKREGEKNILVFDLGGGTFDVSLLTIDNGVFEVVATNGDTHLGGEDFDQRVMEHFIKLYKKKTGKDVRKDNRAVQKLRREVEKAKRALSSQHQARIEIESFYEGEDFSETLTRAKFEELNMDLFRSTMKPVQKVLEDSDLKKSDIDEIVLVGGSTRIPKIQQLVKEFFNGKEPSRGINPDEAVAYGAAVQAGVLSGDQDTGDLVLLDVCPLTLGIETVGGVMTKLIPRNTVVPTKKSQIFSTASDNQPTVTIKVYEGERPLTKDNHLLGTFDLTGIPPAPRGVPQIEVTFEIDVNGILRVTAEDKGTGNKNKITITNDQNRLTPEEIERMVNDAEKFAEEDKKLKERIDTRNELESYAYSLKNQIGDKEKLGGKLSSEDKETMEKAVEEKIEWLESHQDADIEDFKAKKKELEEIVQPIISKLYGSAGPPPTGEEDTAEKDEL

[2] = molecular target: T2, isolated nucleotide binding domain of human BiP (residues 26-410) (human, UniProt P11021 26-410); experiment: as above; conditions: both partners purified
T2 construct: also called NBD; BiP NBD; source: E. coli BL21(DE3), purified (ammonium sulfate precipitation, nickel chromatography, Q-Sepharose, Superdex200)
T2 sequence (P11021 26-410): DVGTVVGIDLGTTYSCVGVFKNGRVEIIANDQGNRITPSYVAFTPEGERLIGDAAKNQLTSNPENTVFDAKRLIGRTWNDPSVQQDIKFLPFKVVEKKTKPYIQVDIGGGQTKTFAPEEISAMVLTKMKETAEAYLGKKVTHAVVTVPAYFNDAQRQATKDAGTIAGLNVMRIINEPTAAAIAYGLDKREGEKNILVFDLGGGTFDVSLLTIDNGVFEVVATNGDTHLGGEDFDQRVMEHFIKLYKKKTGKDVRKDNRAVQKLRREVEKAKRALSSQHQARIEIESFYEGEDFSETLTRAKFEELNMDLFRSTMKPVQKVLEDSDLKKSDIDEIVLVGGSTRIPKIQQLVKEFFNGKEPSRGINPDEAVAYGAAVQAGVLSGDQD

binding result [1]: binds | binding result [2]: binds
B1: human sigma-1 receptor chaperone domain (residues 112-223) (domain or fragment, UniProt Q99720 112-223, looked up)
chain: GSRGHSGRYWAEISDTIISGTFHQWREGTTKSEVFYPGETVVHGPGEATAVEWGPNTWMVEYGRGVIPSTLAFALADTVFSTQDFLTLFYTLRSYARGLRLELTTYLFGQDP
notes: sigma-1 receptor (S1R), human, residues 112-223 (chaperone domain; 223 is the C-terminal residue); 15N-labelled for the titrations; No cleavage of the tag is described; also called S1R(cd); S1R chaperone domain
